In publication PMC12272874, “The common homocystinuria-associated P1173L variant of human methionine synthase impairs reductive methylation” (The Journal of Biological Chemistry, 2025):

How the values were obtained:
[1] = molecular target: T1, Human methionine synthase (MTR), wild-type, full-length recombinant (human, UniProt Q99707 1-1265); assay: native gel or EMSA; 15 μM cob(II)alamin-bound wild-type or P1173L MTR mixed with equimolar MTRR in Buffer C (100 mM HEPES, pH 7.4, 150 mM KCl, 10% glycerol), room temperature 5 min; 4–15% gradient gel, 4 °C; settings: both partners purified
T1 construct: Methionine synthase (MTR), human, full length, 140.5 kDa; codon-optimised synthetic gene in pET-28 between BamH1 and Xho1, thrombin cleavage site at the N-terminus; Monomer fraction of the size exclusion column was used; Loaded with cob(II)alamin (native gel, stopped-flow, EPR) or MeCbl (native gel with substrates); also called wild-type MTR; WT; source: E. coli BL21 (DE3), co-expressed with …
T1 sequence (Q99707 whole entry): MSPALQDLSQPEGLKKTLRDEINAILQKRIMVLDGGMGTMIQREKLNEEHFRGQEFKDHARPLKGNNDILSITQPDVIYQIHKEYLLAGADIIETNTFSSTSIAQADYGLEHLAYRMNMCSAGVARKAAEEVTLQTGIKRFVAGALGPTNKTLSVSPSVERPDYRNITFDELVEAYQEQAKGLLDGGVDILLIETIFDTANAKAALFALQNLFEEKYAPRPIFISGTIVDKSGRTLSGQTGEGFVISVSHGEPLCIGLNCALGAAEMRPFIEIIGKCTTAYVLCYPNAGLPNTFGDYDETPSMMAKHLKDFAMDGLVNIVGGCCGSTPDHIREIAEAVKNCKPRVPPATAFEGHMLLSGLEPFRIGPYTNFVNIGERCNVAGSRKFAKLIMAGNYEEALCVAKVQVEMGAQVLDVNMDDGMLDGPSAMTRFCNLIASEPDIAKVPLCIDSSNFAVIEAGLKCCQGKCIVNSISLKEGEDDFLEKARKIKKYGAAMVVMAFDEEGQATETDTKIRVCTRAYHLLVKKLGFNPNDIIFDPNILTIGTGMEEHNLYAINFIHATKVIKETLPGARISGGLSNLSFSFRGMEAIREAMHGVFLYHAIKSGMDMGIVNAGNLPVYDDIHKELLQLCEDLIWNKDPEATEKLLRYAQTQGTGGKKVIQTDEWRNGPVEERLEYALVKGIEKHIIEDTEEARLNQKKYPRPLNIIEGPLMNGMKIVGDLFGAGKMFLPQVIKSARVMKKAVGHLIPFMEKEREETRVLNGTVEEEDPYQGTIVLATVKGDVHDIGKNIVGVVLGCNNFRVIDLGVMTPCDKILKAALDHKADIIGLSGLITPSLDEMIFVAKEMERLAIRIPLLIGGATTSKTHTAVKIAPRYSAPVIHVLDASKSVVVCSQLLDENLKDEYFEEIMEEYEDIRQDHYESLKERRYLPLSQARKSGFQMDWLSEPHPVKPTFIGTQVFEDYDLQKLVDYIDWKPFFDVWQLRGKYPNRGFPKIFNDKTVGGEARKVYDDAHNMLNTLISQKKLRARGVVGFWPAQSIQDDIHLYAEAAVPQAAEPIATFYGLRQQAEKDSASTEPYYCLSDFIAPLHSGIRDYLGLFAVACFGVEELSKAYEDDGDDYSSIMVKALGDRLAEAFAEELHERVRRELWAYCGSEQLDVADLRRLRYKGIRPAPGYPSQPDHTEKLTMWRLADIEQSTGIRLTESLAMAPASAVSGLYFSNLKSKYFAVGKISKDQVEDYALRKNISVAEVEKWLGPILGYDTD

[2] = molecular target: T2, P1173L variant of human methionine synthase (MTR), full-length recombinant (human, UniProt Q99707 1-1265, P1173L); assay: as above; settings: both partners purified
T2 construct: Methionine synthase (MTR), human, full length, clinical missense variant P1173L made from the wild-type pET28-thrombin-MTR construct; Homocystinuria-associated variant that occurs in patients; Same expression and purification as the wild type; Loaded with cob(II)alamin or MeCbl; also called P1173L MTR; P→L; source: E. coli BL21 (DE3), co-expressed with GST-tagged ΔNMMADHC, purified (Ni-NTA, size …)
T2 sequence (Q99707 whole entry P1173L): as the sequence (Q99707 whole entry) above, with P1173L counted along it

- binding result [1]: binds
- binding result [2]: binds
B1: Human methionine synthase reductase (MTRR), full-length recombinant (enzyme, UniProt Q9UBK8-2 1-698, looked up)
chain: MRRFLLLYATQQGQAKAIAEEICEQAVVHGFSADLHCISESDKYDLKTETAPLVVVVSTTGTGDPPDTARKFVKEIQNQTLPVDFFAHLRYGLLGLGDSEYTYFCNGGKIIDKRLQELGARHFYDTGHADDCVGLELVVEPWIAGLWPALRKHFRSSRGQEEISGALPVASPASSRTDLVKSELLHIESQVELLRFDDSGRKDSEVLKQNAVNSNQSNVVIEDFESSLTRSVPPLSQASLNIPGLPPEYLQVHLQESLGQEESQVSVTSADPVFQVPISKAVQLTTNDAIKTTLLVELDISNTDFSYQPGDAFSVICPNSDSEVQSLLQRLQLEDKREHCVLLKIKADTKKKGATLPQHIPAGCSLQFIFTWCLEIRAIPKKAFLRALVDYTSDSAEKRRLQELCSKQGAADYSRFVRDACACLLDLLLAFPSCQPPLSLLLEHLPKLQPRPYSCASSSLFHPGKLHFVFNIVEFLSTATTEVLRKGVCTGWLALLVASVLQPNIHASHEDSGKALAPKISISPRTTNSFHLPDDPSIPIIMVGPGTGIAPFIGFLQHREKLQEQHPDGNFGAMWLFFGCRHKDRDYLFRKELRHFLKHGILTHLKVSFSRDAPVGEEEAPAKYVQDNIQLHGQQVARILLQENGHIYVCGDAKNMAKDVHDALVQIISKEVGVEKLEAMKTLATLKEEKRYLQDIWS
notes: Methionine synthase reductase (MTRR), human, full length; purified by the same protocol as ΔCMTRR; source: E. coli BL21(DE3), purified (Glutathione Sepharose 4B, thrombin cleavage, size exclusion chromatography); not shown: GST, N-terminal, cleaved
